Measured values as given in patent publication US11306331B2, “Processes for the production of hydroxycinnamic acids using polypeptides having tyrosine ammonia lyase activity” (CysBio ApS, priority 2014, dated 2022).

Legend:
[1] = tested on: E. coli BL21(DE3)pLysS cells; test: Specific production of pHCA and CA by E. coli expressing TAL/PAL enzymes; format: cell-based, Escherichia coli; settings: 24 h after supplementation, +/- standard deviation
Description: Plasmids carrying the genes were transformed into electrocompetent E. coli BL21(DE3)pLysS cells (Life Technologies) and selected on LBplates containing 50 ug/mL streptomycin. The strains were grown in M9 minimal media containing glucose as a carbon source, and expression was induced by adding 1 mM IPTG at an optical density at 600 nm of 0.6. After three hours of growth at 30° C. the cultures were supplemented with 2 mM tyrosine, phenylalanine or histidine. After further 24 hours, samples were withdrawn for determination of the optical density at 600 nm and for the isolation of the supernatant.
The concentration of pHCA and CA in the supernatant was quantified by high performance (HPLC) and compared to chemical standards. HPLC was done on a Thermo setup using a HS-F5 column and mobile phases: 5 mM ammonium formate pH 4.0 (A) and acetonitrile (B) at 1.5 mL min-1, using a gradient elution starting at 5% B. From 0.5 min after injection to 7 min, the fraction of B increased linearly from 5% to 60%, and between 9.5 min and 9.6 the fraction of B decreased back to 5%, and remaining there until 12m pHCA and CA were quantified by measuring absorbance at 333 nm and 277 nm, respectively. The production was tested without addition of precursors or the addition of either phenylalanine or tyrosine to the growth medium.
The specific production was calculated as micromolar (μM) concentration per unit of optical density of the culture at 600 nm, and standard deviations were calculated based on triplicate experiments. HaXAL1, HaXAL2 and FjXAL are the most specific enzymes and those that reach the highest yields.

[2] = tested on: Saccharomyces cerevisiae CEN.PK102-5B; test: Specific production of pHCA and CA by S. cerevisiae expressing TAL enzymes; format: cell-based; settings: 72 h, 30° C., +/- standard deviation
Excerpt: A number of the previously characterized enzymes were characterized when expressed in Saccharomyces cerevisiae. Genes encoding HaXAL1 and FjXAL were synthesized with codon optimization for S. cerevisiae available by GeneArt (Life Technologies), and were named HaXAL1 Sc and FjXALSc. Genes were amplified using the oligonucleotide (refer to specific name) shown in Table 6, and inserted by uracil-excision into the vector pCfB132 together with the PPGK1 promoter amplified by primers PPGK1_fw and PPGK1_rv (Jensen et al., 2014). The finished plasmids were transformed into Saccharomyces cerevisiae CEN.PK102-5B (MAT a ura3-52 his3Δ1 leu2-3/112 MAL2-8c SUC2) using a standard lithium acetate transformation protocol and selected for on synthetic drop-out media plates lacking uracil.
Cells were grown in SC medium without uracil, and diluted into Delft medium or Feed-In-Time (FIT) medium (m2p-labs) supplemented with leucine and histidine. After 72 h of incubation at 30° C. with shaking, samples were taken for the analysis of optical density at 600 nm and for clarification of the supernatant, which was analyzed by HPLC as described in example 1. The specific production was calculated as micromolar (μM) concentration per unit of optical density of the culture at 600 nm and is shown in Table 4.

[3] = tested on: L. lactis NZ9000ΔldhΔldhB; test: Specific pHCA and CA productivity of L. lactis strains expressing TAL/PAL enzymes in CDM; format: cell-based, Lactococcus lactis
Excerpt: The synthetic RsXALI (protein GI 129592) and RmXALI (protein GI 126464011) genes, codon optimized for Lactococcus lactis (GeneArt), were cloned into the nisin inducible expression vector pNZ8048 (Kuipers et al., 1998) as follows: RsXALI (SEQ ID NO: 56) and RmXALI (SEQ ID NO: 57) genes and the vector were PCR amplified using the primers listed in Table 7, and were assembled in a single-tube isothermal reaction using the Gibson Assembly Master Mix (New England Biolabs). Reaction products were ethanol-precipitated and suspended in double distilled water before transformation into L. lactis by electroporation as described by Holo and Nes (1995). The synthetic genes encoding SeSam8, R_XAL, HaXAL1 and FjXAL described in a previous example above were amplified by PCR using the primer pairs listed in Table 1, digested with specific restriction enzymes, and cloned in-between the NcoI and XbaI restriction sites of pNZ8048. The plasmids were obtained and maintained in L. lactis NZ9000 (Kuipers et al., 1998) and the gene sequences of the different constructs were verified by sequencing.
To assess pHCA production, TAL-expression vectors were transformed into a strain derived from NZ9000, but with deletion of the genes Idh and dhB (NZ9000ΔldhΔldhB). A control strain was also constructed by transformation of NZ9000ΔldhΔldhB with empty expression vector pNZ8048.
For molecular biology procedures, L. lactis strains were cultivated as batch cultures (flasks) without aeration in M17 medium (Difco™, USA) supplemented with 0.5% glucose (w/v) at 30° C. To assess pHCA production, strains were grown as static cultures in chemically defined medium (CDM; Poolman and Konings, 1988) containing 1% glucose (wt/vol) without pH control (initial pH 6.5 or 7.0) and supplemented with 1.7 or 3.7 mM L-tyrosine. Plasmid selection was achieved by addition of 5 μg mL^−1 chloramphenicol to the growth medium. Growth was monitored by measuring OD600. For heterologous expression of cloned tyrosine ammonia lyases, L. lactis strains were grown in CDM and nisin (1.5 μg L^−1) was added at an OD600 of 0.3-0.4. Samples (1 mL) of cultures were collected at different points during growth; centrifuged (16,100×g, 10 min, 4° C.) and the supernatants stored at −20° C. until analysis by HPLC as described in a previous example above. […] The first six columns are results from media containing 1.7 mM tyrosine. The seventh and ninth columns represent samples from strains grown in media containing 3.7 mM tyrosine, and the eighth and ninth columns are data from media with 68.5 mM 3-(N-morpholino)propanesulfonic acid (MOPS) and initial pH adjusted to 7.0 rather than 6.5.

B1: Flavobacterium johnsoniae FjXAL tyrosine ammonia lyase (Protein GI 146298870), SEQ ID NO: 1, His-tagged (N-terminal tag SEQ ID NO: 11) (Flavobacterium … (protein)
chain: MNTINEYLSLEEFEAIIFGNQKVTISDVVVNRVNESFNFLKEFSGNKVIYGVNTGFGPMAQYRIKESDQIQLQYNLIRSHSSGTGKPLSPVCAKAAILARLNTLSLGNSGVHPSVINLMSELINKDITPLIFEHGGVGASGDLVQLSHLALVLIGEGEVFYKGERRPTPEVFEIEGLKPIQVEIREGLALINGTSVMTGIGVVNVYHAKKLLDWSLKSSCAINELVQAYDDHFSAELNQTKRHKGQQEIALKMRQNLSDSTLIRKREDHLYSGENTEEIFKEKVQEYYSLRCVPQILGPVLETINNVASILEDEFNSANDNPIIDVKNQHVYHGGNFHGDYISLEMDKLKIVITKLTMLAERQLNYLLNSKINELLPPFVNLGTLGFNFGMQGVQFTATSTTAESQMLSNPMYVHSIPNNNDNQDIVSMGTNSAVITSKVIENAFEVLAIEMITIVQAIDYLGQKDKISSVSKKWYDEIRNIIPTFKEDQVMYPFVQKVKDHLINN
[1]; M9 + His (2 mM)
  Specific production of CA: 0 ± 0 μM OD600-1
  Specific production of pHCA: 91 ± 20 μM OD600-1
[1]; M9 + Phe (2 mM)
  Specific production of CA: 0.5 ± 0.4 μM OD600-1
  Specific production of pHCA: 76 ± 29 μM OD600-1
[1]; M9 + Tyr (2 mM)
  Specific production of CA: 0 ± 0 μM OD600-1
  Specific production of pHCA: 440 ± 100 μM OD600-1
[2]; Delft + Tyr (10 mM)
  Specific production of CA: 0 ± 0 μM OD600-1
  Specific production of pHCA: 120 ± 16 μM OD600-1
[2]; Delft medium
  Specific production of CA: 0 ± 0 μM OD600-1
  Specific production of pHCA: 30 ± 3.5 μM OD600-1
[2]; FIT + Tyr (10 mM)
  Specific production of CA: 0 ± 0 μM OD600-1
  Specific production of pHCA: 120 ± 19 μM OD600-1
[2]; FIT medium
  Specific production of CA: 0 ± 0 μM OD600-1
  Specific production of pHCA: 130 ± 16 μM OD600-1
[3]; CDM, 1.7 mM tyrosine
  increase in specific production of pHCA over RmXALI, the second-best enzyme: five-fold increase
[3]; CDM, 1.7 mM tyrosine, initial pH 6.5
  Specific production of pHCA: 15 μM OD600^−1
[3]; tyrosine increased from 1.7 mM to 3.7 mM and/or pH increased from 6.5 to 7.0
  specific productivity of pHCA: 24 μMD600^−1
